From patent US20250152746A1, “BASE EDITING OF ANGPTL3 AND METHODS OF USING SAME FOR TREATMENT OF DISEASE” (Verve Therapeutics, Inc., priority 2020, published 2025) come the findings set out here.

In the oligonucleotide strings, read from the 5' end, every base follows the letter of its sugar. An asterisk marks phosphorothioate; unmarked linkages are phosphodiester. Other units and linkages are bracketed, terminal groups are in braces. A string of capitals states the bases alone. m = 2'-O-methyl; r = 2'-OH (RNA)

B1: GA161: PCSK9 gRNA; protospacer GGACGAGGACGGCGACTACG (SEQ ID NO: 155) (nucleic acid)
guide: mG*mG*mA*rCrGrArGrGrArCrGrGrCrGrArCrUrArCrGrGrUrUrUrUrArGrArGrCrUrArGrArArArUrArGrCrArArGrUrUrArArArArUrArArGrGrCrUrArGrUrCrCrGrUrUrArUrCrArArCrUrUrGrArArArArArGrUrGrGrCrArCrCrGrArGrUrCrGrGrUrGrCrU*mU*mU*mU
B2: GA227: PCSK9 gRNA; protospacer GTCCCGGAAGTTGCCGGCAG (SEQ ID NO: 221) (nucleic acid)
guide: GUCCCGGAAGUUGCCGGCAGGUUUUAGAGCUAGAAAUAGCAAGUUAAAAUAAGGCUAGUCCGUUAUCAACUUGAAAAAGUGGCACCGAGUCGGUGCUUUU
modifications: sugars from the 5' end m3 r94 m3, linkages s3 o93 s3 (s phosphorothioate, o phosphodiester), T or U not given here
B3: GA224: PCSK9 gRNA; protospacer GGCCGCTGACCACCCCTGCC (SEQ ID NO: 218) (nucleic acid)
guide: GGCCGCUGACCACCCCUGCCGUUUUAGAGCUAGAAAUAGCAAGUUAAAAUAAGGCUAGUCCGUUAUCAACUUGAAAAAGUGGCACCGAGUCGGUGCUUUU
modifications: sugars from the 5' end m3 r94 m3, linkages s3 o93 s3 (s phosphorothioate, o phosphodiester), T or U not given here
B4: GA228: PCSK9 gRNA; protospacer CGGCTGTACCCACCCGCCAG (SEQ ID NO: 222) (nucleic acid)
guide: CGGCUGUACCCACCCGCCAGGUUUUAGAGCUAGAAAUAGCAAGUUAAAAUAAGGCUAGUCCGUUAUCAACUUGAAAAAGUGGCACCGAGUCGGUGCUUUU
modifications: sugars from the 5' end m3 r94 m3, linkages s3 o93 s3 (s phosphorothioate, o phosphodiester), T or U not given here
B5: GA160: PCSK9 gRNA; protospacer GCCTTGCGTTCCGAGGAGGA (SEQ ID NO: 154) (nucleic acid)
guide: GCCUUGCGUUCCGAGGAGGAGUUUUAGAGCUAGAAAUAGCAAGUUAAAAUAAGGCUAGUCCGUUAUCAACUUGAAAAAGUGGCACCGAGUCGGUGCUUUU
modifications: sugars from the 5' end m3 r94 m3, linkages s3 o93 s3 (s phosphorothioate, o phosphodiester), T or U not given here
B6: GA237: PCSK9 gRNA; protospacer CAACGCCGCCTGCCAGCGCC (SEQ ID NO: 230) (nucleic acid)
guide: CAACGCCGCCUGCCAGCGCCGUUUUAGAGCUAGAAAUAGCAAGUUAAAAUAAGGCUAGUCCGUUAUCAACUUGAAAAAGUGGCACCGAGUCGGUGCUUUU
modifications: sugars from the 5' end m3 r94 m3, linkages s3 o93 s3 (s phosphorothioate, o phosphodiester), T or U not given here
B7: GA236: PCSK9 gRNA; protospacer AGCCCTCGCCAGGCGCTGGC (SEQ ID NO: 229) (nucleic acid)
guide: AGCCCUCGCCAGGCGCUGGCGUUUUAGAGCUAGAAAUAGCAAGUUAAAAUAAGGCUAGUCCGUUAUCAACUUGAAAAAGUGGCACCGAGUCGGUGCUUUU
modifications: sugars from the 5' end m3 r94 m3, linkages s3 o93 s3 (s phosphorothioate, o phosphodiester), T or U not given here
B8: GA225: PCSK9 gRNA; protospacer GGCATCGTCCCGGAAGTTGC (SEQ ID NO: 219) (nucleic acid)
guide: GGCAUCGUCCCGGAAGUUGCGUUUUAGAGCUAGAAAUAGCAAGUUAAAAUAAGGCUAGUCCGUUAUCAACUUGAAAAAGUGGCACCGAGUCGGUGCUUUU
modifications: sugars from the 5' end m3 r94 m3, linkages s3 o93 s3 (s phosphorothioate, o phosphodiester), T or U not given here
B9: GA233: PCSK9 gRNA; protospacer GCGGCTGTACCCACCCGCCA (SEQ ID NO: 227) (nucleic acid)
guide: GCGGCUGUACCCACCCGCCAGUUUUAGAGCUAGAAAUAGCAAGUUAAAAUAAGGCUAGUCCGUUAUCAACUUGAAAAAGUGGCACCGAGUCGGUGCUUUU
modifications: sugars from the 5' end m3 r94 m3, linkages s3 o93 s3 (s phosphorothioate, o phosphodiester), T or U not given here
B10: GA223: PCSK9 gRNA; protospacer GCTGACCACCCCTGCCAGGT (SEQ ID NO: 217) (nucleic acid)
guide: GCUGACCACCCCUGCCAGGUGUUUUAGAGCUAGAAAUAGCAAGUUAAAAUAAGGCUAGUCCGUUAUCAACUUGAAAAAGUGGCACCGAGUCGGUGCUUUU
modifications: sugars from the 5' end m3 r94 m3, linkages s3 o93 s3 (s phosphorothioate, o phosphodiester), T or U not given here
B11: GA229: PCSK9 gRNA; protospacer GTCGTGCTGGTCACCGCTGC (SEQ ID NO: 223) (nucleic acid)
guide: GUCGUGCUGGUCACCGCUGCGUUUUAGAGCUAGAAAUAGCAAGUUAAAAUAAGGCUAGUCCGUUAUCAACUUGAAAAAGUGGCACCGAGUCGGUGCUUUU
modifications: sugars from the 5' end m3 r94 m3, linkages s3 o93 s3 (s phosphorothioate, o phosphodiester), T or U not given here
B12: GA234: PCSK9 gRNA; protospacer CGCCTGCCAGCGCCTGGCGA (SEQ ID NO: 252) (nucleic acid)
guide: mC*mG*mC*rCrUrGrCrCrArGrCrGrCrCrUrGrGrCrGrArGrUrUrUrUrArGrArGrCrUrArGrArArArUrArGrCrArArGrUrUrArArArArUrArArGrGrCrUrArGrUrCrCrGrUrUrArUrCrArArCrUrUrGrArArArArArGrUrGrGrCrArCrCrGrArGrUrCrGrGrUrGrCrU*mU*mU*mU
B13: GA230: PCSK9 gRNA; protospacer AGTAGAGGCAGGCATCGTCC (SEQ ID NO: 224) (nucleic acid)
guide: AGUAGAGGCAGGCAUCGUCCGUUUUAGAGCUAGAAAUAGCAAGUUAAAAUAAGGCUAGUCCGUUAUCAACUUGAAAAAGUGGCACCGAGUCGGUGCUUUU
modifications: sugars from the 5' end m3 r94 m3, linkages s3 o93 s3 (s phosphorothioate, o phosphodiester), T or U not given here

In one series the test system is PCSK9 gene. In words: PCSK9 gRNA/SpCas9 editing in primary human hepatocytes (Tables 2, 4). The series is classed as cell-based. The settings on record: 100 ng/RNA/mL; SpCas9 mRNA MS002 1:1 by weight. An outline of the steps: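 Primary human hepatocytes co-transfected with PCSK9 gRNA plus SpCas9 mRNA (1:1 by weight) at 2500, 500 or 100 ng RNA/mL, or 2500–250 ng/mL for tracr-modified guides. Editing at the target site read by amplicon next-generation sequencing of extracted genomic DNA.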
With B1, the “Human Primary Hepatocyte Editing % 100” value was 3.65%.
For B2, the “Human Primary Hepatocyte Editing % 100” value was found to be 0.02%.
As to B3, the “Human Primary Hepatocyte Editing % 100” value is 1.01%.
For the molecule B4, the “Human Primary Hepatocyte Editing % 100” value was determined as 5.9%.
Consider B5, for which the “Human Primary Hepatocyte Editing % 100” value turned out to be 1.19%.
Consider B6, for which the “Human Primary Hepatocyte Editing % 100” value is reported as 4.53%.
For B7, the “Human Primary Hepatocyte Editing % 100” value turned out to be 6.92%.
With B8, the “Human Primary Hepatocyte Editing % 100” value is reported as 0.89%.
Take B9: the “Human Primary Hepatocyte Editing % 100” value came to 3.08%.
Turning to B10, the “Human Primary Hepatocyte Editing % 100” value was found to be 1.44%.
Still for that read-out and setting: then B11, with 0.47%; and B12, with 0.06%.

The same series, now with this note: 500 ng/RNA/mL; SpCas9 mRNA MS002 1:1 by weight.
Turning to B1, the “Human Primary Hepatocyte Editing % 500” value worked out at 8.74%.
Turning to B2, the “Human Primary Hepatocyte Editing % 500” value amounted to 8.29%.
On to B3, for which the “Human Primary Hepatocyte Editing % 500” value is on record as 2.19%.
For the molecule B4, the “Human Primary Hepatocyte Editing % 500” value is given as 10.96%.
Regarding B5, the “Human Primary Hepatocyte Editing % 500” value is 5.58%.
In the case of B6, the “Human Primary Hepatocyte Editing % 500” value is on record as 15.83%.
Turning to B7, the “Human Primary Hepatocyte Editing % 500” value is listed as 3.13%.
For B8, the “Human Primary Hepatocyte Editing % 500” value is 6.39%.
The same measure, in the same setting: then B9, with 5.39%; and B10, with 7.28%.
As for B11, the “Human Primary Hepatocyte Editing % 500” value was 6.85%.
The same measure, in the same setting: in the case of B13 it was 12.83%; in that of B12, 2.29%.

Still in this series, the particulars now being: 2500 ng/RNA/mL; SpCas9 mRNA MS002 1:1 by weight.
On to B1, for which the “Human Primary Hepatocyte Editing % 2500” value stood at 35.08%.
Same read-out and setting: then B2, with 32.09%.
In the case of B3, the “Human Primary Hepatocyte Editing % 2500” value turned out to be 13.02%.
Same read-out and setting: then B4, with 37.1%; and B5, with 23.3%; and B6, with 36.78%.
Consider B7, for which the “Human Primary Hepatocyte Editing % 2500” value was found to be 22.41%.
In the case of B8, the “Human Primary Hepatocyte Editing % 2500” value came out at 18.82%.
As for B9, the “Human Primary Hepatocyte Editing % 2500” value is given as 19.97%.
B10: the “Human Primary Hepatocyte Editing % 2500” value is 17.5%.
On to B11, for which the “Human Primary Hepatocyte Editing % 2500” value amounted to 30.41%.
As for B13, the “Human Primary Hepatocyte Editing % 2500” value was determined as 29.31%.
Consider B12, for which the “Human Primary Hepatocyte Editing % 2500” value is reported as 5.45%.

The test system of another series is PCSK9 gene. In words: PCSK9 gRNA/SpCas9 editing in primary cynomolgus hepatocytes (Tables 2, 22). The settings on record: 100 ng/RNA/mL; SpCas9 mRNA MS002 1:1 by weight. The series is classed as cell-based, cynomolgus monkey.
For the molecule B1, the “Cyno Primary Hepatocyte Editing % 100” value was 4.52%.
For the molecule B2, the “Cyno Primary Hepatocyte Editing % 100” value was determined as 0.56%.
Still for that read-out and setting: then B3, with 2.61%; and B4, with 1.95%.
In the case of B5, the “Cyno Primary Hepatocyte Editing % 100” value is on record as 1.38%.
Turning to B6, the “Cyno Primary Hepatocyte Editing % 100” value came out at 2.17%.
Turning to B7, the “Cyno Primary Hepatocyte Editing % 100” value is 2.31%.
The same measure, in the same setting: in the case of B8 it was 2.03%; in that of B9, 2.38%; in that of B10, 3.46%.
Take B11: the “Cyno Primary Hepatocyte Editing % 100” value is listed as 0.75%.
On to B12, for which the “Cyno Primary Hepatocyte Editing % 100” value is on record as 0.21%.

The series is the same for the next values; noted with them: 500 ng/RNA/mL; SpCas9 mRNA MS002 1:1 by weight.
With B1, the “Cyno Primary Hepatocyte Editing % 500” value turned out to be 14.98%.
On to B2, for which the “Cyno Primary Hepatocyte Editing % 500” value was 4.58%.
For the molecule B3, the “Cyno Primary Hepatocyte Editing % 500” value was determined as 12.34%.
For B4, the “Cyno Primary Hepatocyte Editing % 500” value was determined as 7.89%.
The same measure, in the same setting: in the case of B5 it was 6.60%; in that of B6, 13.46%; in that of B7, 11.62%.
Same read-out and setting: in the case of B8 it was 3.11%.
In the case of B9, the “Cyno Primary Hepatocyte Editing % 500” value stood at 10.84%.
For B10, the “Cyno Primary Hepatocyte Editing % 500” value is 21.4%.
In the case of B11, the “Cyno Primary Hepatocyte Editing % 500” value turned out to be 5.39%.
The same measure, in the same setting: then B12, with 1.53%.

The same series, now with this note: 2500 ng/RNA/mL; SpCas9 mRNA MS002 1:1 by weight.
With B1, the “Cyno Primary Hepatocyte Editing % 2500” value was 48.24%.
Turning to B2, the “Cyno Primary Hepatocyte Editing % 2500” value is 32.41%.
Regarding B3, the “Cyno Primary Hepatocyte Editing % 2500” value is recorded as 47.5%.
On to B4, for which the “Cyno Primary Hepatocyte Editing % 2500” value is 31.36%.
For the molecule B5, the “Cyno Primary Hepatocyte Editing % 2500” value is listed as 23.15%.
Still for that read-out and setting: then B6, with 46.01%; and B7, with 37.44%; and B8, with 8.57%.
In the case of B9, the “Cyno Primary Hepatocyte Editing % 2500” value is 37.8%.
In the case of B10, the “Cyno Primary Hepatocyte Editing % 2500” value is 57.58%.
Take B11: the “Cyno Primary Hepatocyte Editing % 2500” value came to 34.28%.
Turning to B13, the “Cyno Primary Hepatocyte Editing % 2500” value was found to be 35.86%.
For B12, the “Cyno Primary Hepatocyte Editing % 2500” value is on record as 6.44%.
